T1: murine HER4 antigen (mouse, UniProt Q61527 26-652, limits assumed)
T1 construct: In-house antigen coated for ELISA; also called mouse HER4
T1 sequence (looked up): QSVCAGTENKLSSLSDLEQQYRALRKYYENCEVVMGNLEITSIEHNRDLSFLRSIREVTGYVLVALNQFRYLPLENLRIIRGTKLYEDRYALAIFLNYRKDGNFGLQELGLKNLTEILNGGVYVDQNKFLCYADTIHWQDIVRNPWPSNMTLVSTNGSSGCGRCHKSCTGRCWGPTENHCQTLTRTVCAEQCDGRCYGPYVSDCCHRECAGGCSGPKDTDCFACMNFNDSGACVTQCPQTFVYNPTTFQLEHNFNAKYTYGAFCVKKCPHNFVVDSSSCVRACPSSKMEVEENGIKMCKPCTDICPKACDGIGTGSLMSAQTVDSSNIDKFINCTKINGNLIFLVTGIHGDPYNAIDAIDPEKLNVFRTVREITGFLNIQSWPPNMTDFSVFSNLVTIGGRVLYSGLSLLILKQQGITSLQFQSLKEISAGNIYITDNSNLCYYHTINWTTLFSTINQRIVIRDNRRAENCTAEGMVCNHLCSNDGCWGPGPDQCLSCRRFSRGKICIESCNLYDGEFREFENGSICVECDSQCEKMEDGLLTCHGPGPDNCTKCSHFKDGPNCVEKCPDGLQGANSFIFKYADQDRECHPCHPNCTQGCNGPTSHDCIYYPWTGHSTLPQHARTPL

T2: human HER4 antigen (human, UniProt Q15303 26-649, limits assumed)
T2 construct: Antigen coated for ELISA
T2 sequence (looked up): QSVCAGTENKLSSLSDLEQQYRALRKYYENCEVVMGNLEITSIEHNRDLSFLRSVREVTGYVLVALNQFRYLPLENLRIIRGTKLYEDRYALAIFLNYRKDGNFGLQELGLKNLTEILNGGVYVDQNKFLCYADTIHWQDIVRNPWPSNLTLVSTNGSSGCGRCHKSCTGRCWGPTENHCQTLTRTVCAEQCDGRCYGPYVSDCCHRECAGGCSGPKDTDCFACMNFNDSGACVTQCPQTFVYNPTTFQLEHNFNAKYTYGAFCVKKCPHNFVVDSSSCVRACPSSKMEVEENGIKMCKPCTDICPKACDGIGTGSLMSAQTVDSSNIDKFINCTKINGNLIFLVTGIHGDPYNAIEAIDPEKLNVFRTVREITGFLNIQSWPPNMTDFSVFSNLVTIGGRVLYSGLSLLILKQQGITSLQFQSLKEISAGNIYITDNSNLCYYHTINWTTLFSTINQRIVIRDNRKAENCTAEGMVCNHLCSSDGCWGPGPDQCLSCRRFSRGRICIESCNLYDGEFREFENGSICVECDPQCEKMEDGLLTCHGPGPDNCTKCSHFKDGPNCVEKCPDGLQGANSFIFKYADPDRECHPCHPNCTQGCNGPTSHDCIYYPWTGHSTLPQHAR

B1: chimeric anti-HER3 antibody 5082 (antibody, V domains shown)
VH: EVQLKESGPGLVKPSQSLSLTCSVTGYSITSAYYWNWIRQFPGNKVEWMGYIGYDGRNTYNPSLKNRISITRDTSKNQFFLKLNSLTTEDTATYYCSREGDYGYSDYWGQGTTLTVS
VL: DIVMTQATSSLSASLGDRVTVSCRASQDINNYLNWYQQKPDGTVKLLIYYTSRLQSGVPSRFSGSGSGIDYSLTISNLEQEDFVTYFCQQSETLPWTFGGGTKLELKR
notes: light chain entry is full length
B2: chimeric anti-HER3 antibody 5038 (antibody, V domains shown)
VH: EVKLVESGPGLVKPSQSLSLTCSVTGYSITSGFYWTWIRQFPGNKLEWMGFISYDGSNNYNPSLKNRISITRDTSKNQFFLKLNSVTTEDTATYYCARGGGYYGNLFDYWGQGTTLTVS
VL: DIVMTQTTSSLSASLGDRVTISCRPSQDISNYVNWFQQKPGGTVKLLIFHTSRLHSGVPSRFSGSGSGTDYSLTISTLEQEDIAIYFCQQGITLPWTFGGGTKLEIKR
notes: as for B1
B3: humanized anti-HER3 antibody 10738 (antibody, V domains shown)
VH: QVQLQESGPGLVKPSQTLSLTCTVSGYSITSGFYWTWIRQHPGKGLEWMGFISYSGSNNYNPSLKNRITISVDTSKNQFSLKLSSVTAADTAVYYCARGGGYYGNLFDYWGQGTLVTVSS
VL: DIQMTQSPSSLSASVGDRVTITCRPSQDISNYVNWFQQKPGKAVKLLIFHTSRLHSGVPSRFSGSGSGTDFTFTISSLQPEDIAIYYCQQGITLPWTFGQGTKVEIK
B4: humanized anti-HER3 antibody 10810 (antibody, V domains shown)
VH: B3 VH with K44N, M49I, I68V, V93T
VL: B3 VL with V44P, F73L, I85T
B5: humanized anti-EGFR antibody 10460 (antibody, V domains shown)
VH: EVQLVESGGGLVQPGGSLRLSCAASGFAFSYSDMSWVRQAPGKRLEWVSYMSSAGDVTFYSDTVKGRFTISRDNAKNSLYLQVNSLRAEDTAVYYCVRHRDVAIDYWGQGTTVTVSS
VL: DVVMTQSPLSLPVTLGQPASISCRSSQSLVHSNGNTYLHWYQQRPGQSPRLLIYKVSNRFSGVPDRFSGSGSGTDFTLKISRVEAEDVGVYFCSQSTHVPTFGGGTKLEIK

Residue numbers refer to the chain shown, from its start.

The text below walks through data of patent US20170165365A1 (SYMPHOGEN A S, published 2017).

T7 sequence (G7PIG5 entry or part of it): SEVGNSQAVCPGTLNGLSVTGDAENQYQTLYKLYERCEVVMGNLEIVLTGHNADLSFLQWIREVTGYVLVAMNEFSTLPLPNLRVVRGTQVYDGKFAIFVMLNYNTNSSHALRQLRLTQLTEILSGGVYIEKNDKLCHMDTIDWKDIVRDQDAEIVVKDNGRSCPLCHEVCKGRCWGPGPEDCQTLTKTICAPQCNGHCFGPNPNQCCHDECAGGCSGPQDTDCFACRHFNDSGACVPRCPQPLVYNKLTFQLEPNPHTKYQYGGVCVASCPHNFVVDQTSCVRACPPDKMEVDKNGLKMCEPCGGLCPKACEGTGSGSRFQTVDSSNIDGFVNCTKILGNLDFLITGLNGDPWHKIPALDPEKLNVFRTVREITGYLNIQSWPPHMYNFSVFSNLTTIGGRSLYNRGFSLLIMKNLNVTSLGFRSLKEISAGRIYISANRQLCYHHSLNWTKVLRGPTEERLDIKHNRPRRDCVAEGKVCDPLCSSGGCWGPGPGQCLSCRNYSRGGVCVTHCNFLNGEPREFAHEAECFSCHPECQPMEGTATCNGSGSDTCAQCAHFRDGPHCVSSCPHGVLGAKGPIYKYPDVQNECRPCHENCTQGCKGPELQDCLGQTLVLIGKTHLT

The target of the first assay is T3, human EGFR antigen (Sino Biologicals) (human, UniProt P00533 25-645).
T3 construct: Bought soluble antigen; also called human antigen
Description: ELISA, coated hu EGFR. Here is the method:
(§1) Antibody-antigen binding was measured by ELISA with coated antigens. Human antigens were obtained from Sino Biologicals. All other antigens were produced in-house by transient expression in CHO or HEK293 cells. Chimeric and humanized antibodies, as well as an isotype control antibody, were incubated with the coated antigens at different concentrations. After wash, bound antibodies were detected by HRP-(horse radish peroxidase)-conjugated secondary antibodies.
With B1, the binding result is given as “no binding (tested: 40 nM)”.

As to B2, the binding result was “no binding (tested: 40 nM)”.

On to B3, for which the binding result is given as “no binding (tested: 40 nM)”.

On to B4, for which the binding result is “no binding (tested: 40 nM)”.

The target of the next assay is T4, mouse HER3 antigen (mouse, UniProt Q61526 20-641, limits assumed).
T4 construct: In-house antigen coated for ELISA; also called mouse antigen; murine HER3
T4 sequence (Q61526 20-641 limits assumed): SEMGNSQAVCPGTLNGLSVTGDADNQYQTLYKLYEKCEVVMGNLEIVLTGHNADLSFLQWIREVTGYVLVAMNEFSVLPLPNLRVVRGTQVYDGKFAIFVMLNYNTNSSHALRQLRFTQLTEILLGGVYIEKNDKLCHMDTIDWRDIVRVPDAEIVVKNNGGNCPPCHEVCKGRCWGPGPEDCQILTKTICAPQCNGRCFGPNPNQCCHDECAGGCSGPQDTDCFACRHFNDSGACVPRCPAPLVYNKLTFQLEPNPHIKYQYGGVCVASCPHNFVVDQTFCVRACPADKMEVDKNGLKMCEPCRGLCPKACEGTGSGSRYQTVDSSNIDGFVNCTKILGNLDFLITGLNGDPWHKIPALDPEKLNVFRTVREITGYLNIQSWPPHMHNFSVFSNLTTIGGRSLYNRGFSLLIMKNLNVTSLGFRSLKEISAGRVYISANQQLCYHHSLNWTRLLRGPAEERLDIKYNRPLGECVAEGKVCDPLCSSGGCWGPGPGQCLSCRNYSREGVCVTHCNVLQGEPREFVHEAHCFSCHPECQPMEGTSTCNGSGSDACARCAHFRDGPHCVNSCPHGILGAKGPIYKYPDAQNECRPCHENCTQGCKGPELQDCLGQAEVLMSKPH
Description: ELISA, coated mu HER3. Here is the method: as §1
On the technique in general: An ELISA detects its analyte on a solid surface through an enzyme-linked reagent.
In the case of B5, the binding result is reported as “no binding (tested: 40 nM)”.

On to B1, for which the binding result is “no binding (tested: 40 nM)”.

With B2, the binding result was “no binding (tested: 40 nM)”.

In the case of B3, the binding result is recorded as “no binding (tested: 40 nM)”.

On to B4, for which the binding result is given as “no binding (tested: 40 nM)”.

The next assay deals with T5, human HER3 antigen (Sino Biologicals) (human, UniProt P21860 20-643).
T5 construct: Bought soluble antigen; also called human antigen
Nature of the assay: ELISA, coated hu HER3. Here is the method:
as §1
B5: the binding result is “no binding (tested: 40 nM)”.

Another assay has as its target T6, human HER2 antigen (Sino Biologicals) (human, UniProt P04626 23-652).
T6 construct: Bought soluble antigen; also called human antigen
Nature of the assay: ELISA, coated hu HER2. How it is done:
as §1
As for B5, the binding result is “no binding (tested: 40 nM)”.

Take B1: the binding result is “no binding (tested: 40 nM)”.

As for B2, the binding result is “no binding (tested: 40 nM)”.

Take B3: the binding result was “no binding (tested: 40 nM)”.

For the molecule B4, the binding result is recorded as “no binding (tested: 40 nM)”.

Another assay has as its target T7, cynomolgus HER3 antigen (cynomolgus monkey, UniProt G7PIG5 20-643).
T7 construct: In-house antigen; also called cynomolgus antigen
Nature of the assay: ELISA, coated cy HER3. How it is done: as §1
As to B5, the binding result is “no binding (tested: 40 nM)”.

Another assay has as its target T1, murine HER4 antigen. Nature of the assay: ELISA, coated mu HER4. Here is the method:
as §1
B5: the binding result is given as “no binding (tested: 40 nM)”.

With B1, the binding result was “no binding (tested: 40 nM)”.

Take B2: the binding result is “no binding (tested: 40 nM)”.

Consider B3, for which the binding result is “no binding (tested: 40 nM)”.

Turning to B4, the binding result was “no binding (tested: 40 nM)”.

Another assay has as its target T8, cynomolgus EGFR antigen (cynomolgus monkey, UniProt A0A2K5WK39 25-645).
T8 construct: In-house antigen; also called cynomolgus antigen
Nature of the assay: ELISA, coated cy EGFR. Here is the method: as §1
On to B1, for which the binding result is on record as “no binding (tested: 40 nM)”.

In the case of B2, the binding result is on record as “no binding (tested: 40 nM)”.

Consider B3, for which the binding result is listed as “no binding (tested: 40 nM)”.

Turning to B4, the binding result was “no binding (tested: 40 nM)”.

A further assay has as its target T9, mouse EGFR antigen (mouse, UniProt Q01279 25-647, limits assumed).
T9 construct: In-house antigen coated for ELISA; also called mouse antigen; murine EGFR
Description: ELISA, coated mu EGFR. How it is done: as §1
B5: the binding result is “no binding (tested: 40 nM)”.

Regarding B1, the binding result is “no binding (tested: 40 nM)”.

Take B2: the binding result was “no binding (tested: 40 nM)”.

For B3, the binding result was “no binding (tested: 40 nM)”.

As to B4, the binding result was “no binding (tested: 40 nM)”.

The next assay addresses T2, human HER4 antigen. Nature of the assay: ELISA, coated hu HER4. How it is done: as §1
Take B5: the binding result is “no binding (tested: 40 nM)”.

For the molecule B1, the binding result is “no binding (tested: 40 nM)”.

With B2, the binding result is recorded as “no binding (tested: 40 nM)”.

For the molecule B3, the binding result was “no binding (tested: 40 nM)”.

For the molecule B4, the binding result was “no binding (tested: 40 nM)”.

In a further assay the target is T7, cynomolgus HER3 antigen. Nature of the assay: SPR (ProteOn XPR36), IgG captured by anti-human Fc, soluble monovalent antigen, 1:1 fit. How it is done:
(§2) Kinetic binding analysis of the purified humanized variants was performed on a ProteOn™ XPR36 biosensor (BioRad, USA) employing an IgG capture assay as described by Canziani et al. (Anal. Biochem. (2004) 325:301-307) that allows for measurement of antibody affinities of whole IgG molecules against soluble antigen under monovalent conditions. Briefly, approximately 5000 resonance units (RU) of a monoclonal mouse anti-human IgG Fc antibody (GE Healthcare, Denmark) was conjugated to a GLC chip surface (BioRad, USA) according to the manufacturer's instructions, followed by capture of individual antibodies of the invention or a negative control on the anti-Fc sensor surface. […] Next, 250 μl monovalent antigen (Sino Biologicals) was injected at a flow rate of 50 μl/min in serial threefold dilutions from 100 nM stock to generate response curves. The chip surface was regenerated between cycles by stripping the captured antibody/antigen complexes off the surface with a 10-second injection of 3 M MgCl₂ (GE Healthcare, Denmark) repeated three times. Finally, binding responses were fitted to a Langmuir 1:1 binding model for calculation of the on-rate (kon or ka), off-rate (koff or kd) and affinity (KD) constants using double referencing.
For orientation: Kd means the equilibrium constant for the complex coming apart. A lower Kd goes with higher affinity. The term koff denotes the first-order rate constant of dissociation. Low values mean slow dissociation, high ones fast dissociation. In general, kon refers to a measure of how fast the partners come together. Read a high kon as faster complex formation. B1 had a Kd of 0.098 nM, a koff of 0.00016 s⁻¹ and a kon of 1.7e+06 M⁻¹ s⁻¹.

As to B2, the Kd was 0.89 nM, the koff came to 0.00041 s⁻¹ and the kon was determined as 460000 M⁻¹ s⁻¹.

In turn, B3 showed a Kd of 0.54 nM.

Turning to B4, the Kd was found to be 0.71 nM, the koff came out at 0.00034 s⁻¹ and the kon came to 470000 M⁻¹ s⁻¹.

Another assay concerns the target T5, human HER3 antigen (Sino Biologicals). The assay is described as above. Here is the method: as §2
Consider B1, for which the Kd is 0.08 nM, the koff came to 7.3e-05 s⁻¹ and the kon came to 910000 M⁻¹ s⁻¹.

Take B2: the Kd was found to be 1.6 nM, the koff came out at 0.00048 s⁻¹ and the kon came out at 300000 M⁻¹ s⁻¹.

As for B4, the affinity, expressed as Kd, was 1.1 nM; the koff turned out to be 0.0002 s⁻¹; the kon is 190000 M⁻¹ s⁻¹.

For another assay, the target named is T10, mouse HER2 antigen (mouse, UniProt P70424 23-653, limits assumed).
T10 construct: In-house antigen coated for ELISA; also called mouse antigen; murine HER2
T10 sequence (P70424 23-653 limits assumed): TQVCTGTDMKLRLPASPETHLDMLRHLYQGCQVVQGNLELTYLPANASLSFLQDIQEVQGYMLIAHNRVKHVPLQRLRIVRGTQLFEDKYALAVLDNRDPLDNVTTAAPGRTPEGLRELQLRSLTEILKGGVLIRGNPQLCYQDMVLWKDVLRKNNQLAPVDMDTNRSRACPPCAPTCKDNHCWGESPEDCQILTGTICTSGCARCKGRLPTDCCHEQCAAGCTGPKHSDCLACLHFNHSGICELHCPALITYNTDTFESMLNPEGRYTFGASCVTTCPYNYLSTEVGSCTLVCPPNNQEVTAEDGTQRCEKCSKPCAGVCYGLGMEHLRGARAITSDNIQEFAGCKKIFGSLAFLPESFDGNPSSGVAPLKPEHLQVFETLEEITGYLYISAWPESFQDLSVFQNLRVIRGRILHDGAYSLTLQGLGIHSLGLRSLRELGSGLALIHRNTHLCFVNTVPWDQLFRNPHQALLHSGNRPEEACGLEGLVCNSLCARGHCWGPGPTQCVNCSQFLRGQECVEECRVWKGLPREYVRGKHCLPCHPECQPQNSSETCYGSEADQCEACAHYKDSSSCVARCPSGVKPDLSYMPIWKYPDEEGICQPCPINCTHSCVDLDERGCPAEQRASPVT
Nature of the assay: ELISA, coated mu HER2. How it is done:
as §1
As for B5, the binding result is reported as “no binding (tested: 40 nM)”.

As to B1, the binding result was “no binding (tested: 40 nM)”.

Turning to B2, the binding result was “no binding (tested: 40 nM)”.

As for B3, the binding result is “no binding (tested: 40 nM)”.

Turning to B4, the binding result is reported as “no binding (tested: 40 nM)”.
